Data as given in article PMC2981644 (Journal of molecular biology, 2010).
No end group written: not given here. Alexa 488 = Alexa Fluor 488 dye

B1: clathrin TD, N-terminal domain of the clathrin heavy chain (aa 1-363) (domain or fragment, UniProt P49951 1-363, looked up)
chain: MAQILPIRFQEHLQLQNLGINPANIGFSTLTMESDKFICIREKVGEQAQVVIIDMNDPSNPIRRPISADSAIMNPASKVIALKAGKTLQIFNIEMKSKMKAHTMTDDVTFWKWISLNTVALVTDNAVYHWSMEGESQPVKMFDRHSSLAGCQIINYRTDAKQKWLLLTGISAQQNRVVGAMQLYSVDRKVSQPIEGHAASFAQFKMEGNAEESTLFCFAVRGQAGGKLHIIEVGTPPTGNQPFPKKAVDVFFPPEAQNDFPVAMQISEKHDVVFLITKYGYIHLYDLETGTCIYMNRISGETIFVTAPHEATAGIIGVNRKGQVLSVCVEEENIIPYITNVLQNPDLALRMAVRNNLAGAEEL

What was measured:
[1] = biological target: AP180 M5 (aa 623-680), wild type, middle segment of the AP180 C-terminal domain (UniProt Q05140-2 623-680); assay: NMR titration
[2] = biological target: AP180 M5 site 2 (single-site AP180 M5, residues 639-642 mutated to alanines; binding site 1 mutated), Q05140; assay: NMR titration
[3] = biological target: AP180 M5 site 1 (single-site AP180 M5, residues 667-668 mutated to alanines; binding site 2 mutated), Q05140; assay: NMR titration
[4] = biological target: T1, Clathrin heavy chain terminal domain (Rattus norvegicus, UniProt P11442); assay: NMR
T1 chain: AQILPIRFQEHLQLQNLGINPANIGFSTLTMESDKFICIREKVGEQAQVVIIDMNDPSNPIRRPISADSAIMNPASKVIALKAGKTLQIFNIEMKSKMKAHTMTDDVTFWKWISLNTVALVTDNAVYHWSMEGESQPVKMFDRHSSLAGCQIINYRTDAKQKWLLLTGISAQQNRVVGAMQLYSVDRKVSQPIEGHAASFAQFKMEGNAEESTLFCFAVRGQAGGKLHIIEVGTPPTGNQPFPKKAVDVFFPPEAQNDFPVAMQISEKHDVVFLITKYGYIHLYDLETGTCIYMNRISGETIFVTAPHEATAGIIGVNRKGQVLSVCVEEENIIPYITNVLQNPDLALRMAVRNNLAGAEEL

[5] = biological target: B1; assay: AUC

B1
KD of binding site 1 [1]: 160 ± 23 µM
KD of binding site 2 [1]: 224 ± 48 µM
Kd [2]: 246 µM
Kd [3]: 168 µM

TAVDAFAAPSPASTASPAKA [AP180 M5 fragment, binding site 1]
Kd [4]: 160 µM

B2: AP180 M5 site 1 (residues 667-668 to alanines), fluorescently labelled for AUC (domain or fragment)
chain: {Alexa 488}-ASTASPAK(Alexa 488)AESSGVIDLFGDAFGSGASETQPAPQAVSSSSASADAAAGFGGSFMAPST
Kd [5]: 251 ± 3 µM

B3: AP180 M5 site 2 (residues 639-642 to alanines), fluorescently labelled for AUC (domain or fragment)
chain: {Alexa 488}-ASTASPAK(Alexa 488)AESSGVIDAAAAAFGSGASETQPAPQAVSSSSASADLLAGFGGSFMAPST
Kd [5]: 253 ± 8 µM

B4: Alexa488-AP180 M5 (aa 623-680), wild type, fluorescently labelled (domain or fragment)
chain: {Alexa 488}-ASTASPAK(Alexa 488)AESSGVIDLFGDAFGSGASETQPAPQAVSSSSASADLLAGFGGSFMAPST
Kd [5]: 173 ± 11 µM
